Source: patent US20170296617

T1: peptide25 (ERTYSPSTAVRS)
T1 chain: ERTYSPSTAVRS

T2: Pep25-P2 (ERTYSPS)
T2 chain: ERTYSPS


Key:
peptide25 (ERTYSPSTAVRS) = biological target: T1, peptide25 (ERTYSPSTAVRS)
Pep25-P2 (ERTYSPS) = biological target: T2, Pep25-P2 (ERTYSPS)

Protein | ROCK autophosphorylation under high ATP levels (1 mM) (peptide25 (ERTYSPSTAVRS)) | [S6] phosphorylation ratio (pS6 peak area over pS6 plus S6), mass spectrometry of the ROCK reaction with substrate S6 (Pep25-P2 (ERTYSPS)) | conversion ratio of phosphorylated S6 substrate (mass spectrometry) (Pep25-P2 (ERTYSPS))
MBP-ROCK1 (ROCK1 catalytic domain linked to maltose binding protein) (protein) MSTGDSFETRFEKMDNLLRDPKSEVNSDCLLDGLDALVYDLDFPALRKNKNIDNFLSRYKDTINKIRDLRMKAEDYEVVKVIGRGAFGEVQLVRHKSTRKVYAMKLLSKFEMIKRSDSAFFWEERDIMAFANSPWVVQLFYAFQDDRYLYMVMEYMPGGDLVNLMSNYDVPEKWARFYTAEVVLALDAIHSMGFIHRDVKPDNMLLDKSGHLKLADFGTCMKMNKEGMVRCDTAVGTPDYISPEVLKSQGGDGYYGRECDWWSVGVFLYEMLVGDTPFYADSLVGTYSKIMNHKNSLTFPDDNDISKEAKNLICAFLTDREVRLGRNGVEEIKRHLFFKNDQWAWETLRDTVAPVVPDLSSDIDTSNFDDLEEDKGEEETFPIPKAFVGNQLPFVGFTYYSNRRYLSSANPNDNR | blocked ROCK autophosphorylation | – | –
ROCK1 (protein) MSTGDSFETRFEKMDNLLRDPKSEVNSDCLLDGLDALVYDLDFPALRKNKNIDNFLSRYKDTINKIRDLRMKAEDYEVVKVIGRGAFGEVQLVRHKSTRKVYAMKLLSKFEMIKRSDSAFFWEERDIMAFANSPWVVQLFYAFQDDRYLYMVMEYMPGGDLVNLMSNYDVPEKWARFYTAEVVLALDAIHSMGFIHRDVKPDNMLLDKSGHLKLADFGTCMKMNKEGMVRCDTAVGTPDYISPEVLKSQGGDGYYGRECDWWSVGVFLYEMLVGDTPFYADSLVGTYSKIMNHKNSLTFPDDNDISKEAKNLICAFLTDREVRLGRNGVEEIKRHLFFKNDQWAWETLRDTVAPVVPDLSSDIDTSNFDDLEEDKGEEETFPIPKAFVGNQLPFVGFTYYSNRRYLSSANPNDNRTSSNADKSLQESLQKTIYKLEEQLHNEMQLKDEMEQKCRTSNIKLDKIMKELDEEGNQRRNLESTVSQIEKEKMLLQHRINEYQRKAEQENEKRRNVENEVSTLKDQLEDLKKVSQNSQLANEKLSQLQKQLEEANDL | – | ratio falls with the dose: about 31 at 1 uM, about 29 at 10 uM, about 22 at 30 uM, about 18 at 100 uM; no lower plateau, less than half suppressed at 100 uM; the pS6 peak near m/z 3710 shrinks from 1 uM to 100 uM in the four spectra | Pep25-P2 repressed the phosphorylation of substrate S6 by ROCK
